One substance from doi:10.1101/305789 can be followed below.

The stoichiometry N is the number of molecules, sites or subunits per partner or assembly.

This assay addresses Flag-tagged tomato PCNA (Proliferating cell nuclear antigen) (Solanum lycopersicum). The experiment in a line: western blot of anti-Flag immuno-purified protein.

“And” between values parts separate entries of the source, which are not always exact repeats. Identical values can stand only once.

For “Flag-tagged tomato PCNA (Proliferating cell nuclear antigen) (natural protein)”, the stoichiometry N is 2 and 3.
